Measured values taken from article PMC10308189 (Bio-protocol, 2023).

Molecular target: the molecule itself
Assay: SEC

B1: human amphiphysin 1 N-BAR domain (1-247) (domain or fragment, UniProt P49418 1-247, looked up)
chain: MADIKTGIFAKNVQKRLNRAQEKVLQKLGKADETKDEQFEEYVQNFKRQEAEGTRLQRELRGYLAAIKGMQEASMKLTESLHEVYEPDWYGREDVKMVGEKCDVLWEDFHQKLVDGSLLTLDTYLGQFPDIKNRIAKRSRKLVDYDSARHHLEALQSSKRKDESRISKAEEEFQKAQKVFEEFNVDLQEELPSLWSRRVGFYVNTFKNVSSLEAKFHKEIAVLCHKLYEVMTKLGDQHADKAFTIQG
stoichiometry N: 2
